This is an account of results in US20150203579A1 (Regeneron, published 2015).

The target of assay [1] is T1, recombinant cynomolgus monkey PD-1 expressed with a C-terminal myc-myc-hexahistidine tag (cynomolgus monkey (Macaca fascicularis)).
T1 construct: Monomeric reagent; also called MfPD-1-MMH
T1 chain: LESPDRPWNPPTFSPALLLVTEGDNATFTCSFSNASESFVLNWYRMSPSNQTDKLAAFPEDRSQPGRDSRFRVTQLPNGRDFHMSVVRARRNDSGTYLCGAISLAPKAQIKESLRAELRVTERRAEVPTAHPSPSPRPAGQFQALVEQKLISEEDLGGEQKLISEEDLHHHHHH
Briefly: SPR (Biacore), MfPD-1-MMH, 37 C; end of range tied to H2aM7798N by Table 9.

Assay [2] has as its target T2, recombinant human PD-1 expressed with a C-terminal myc-myc-hexahistidine tag (human).
T2 construct: also called hPD-1-MMH; human PD-1-MMH
The assay is described as follows: SPR (Biacore), mAb captured, hPD-1-MMH injected, 25 C.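 Also: rate constants obtained by fitting sensorgrams to a 1:1 binding model, KD derived as kd/ka and half-life as ln2/(60·kd) in minutes.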

The target in assay [3] is T3, human PD-1 dimer (human PD-1-mFc or human PD-1-hFc) (human, UniProt Q15116 25-170).
T3 construct: also called hPD-1 dimer proteins
The assay is described as follows: SPR (Biacore), hPD-1 dimer (mFc or hFc), 25 C; end of range tied to H2aM7798N by Table 6.

Assay [4] addresses PD-1 chimera: extracellular domain of human PD-1 with trans-membrane and cytoplasmic domains of human CD300a, … (human, UniProt Q9UGN4 181-299, limits assumed). Briefly: cell-based or functional assay.
The target in assay [5] is T2, recombinant human PD-1 expressed with a …. The assay is described as follows: SPR (Biacore), hPD-1-MMH, 37 C; end of range tied to H2aM7798N by Table 5.
Assay [6] deals with T4, recombinant human PD-1 dimer expressed with a C-terminal mouse IgG2a Fc tag (human).
T4 construct: also called hPD-1-mFc; human PD-1-mFc
The assay is described as follows: competition ELISA: blocking 100 pM hPD-1-mFc binding to coated hPD-L2-hFc; end tied to H2aM7798N by Table 14.

For another assay, the target named is T5, monkey PD-1 with mFc (monkey (MfPD-1)).
T5 construct: also called monkey PD-1-mFc; monkey PD-1 dimer
T5 chain: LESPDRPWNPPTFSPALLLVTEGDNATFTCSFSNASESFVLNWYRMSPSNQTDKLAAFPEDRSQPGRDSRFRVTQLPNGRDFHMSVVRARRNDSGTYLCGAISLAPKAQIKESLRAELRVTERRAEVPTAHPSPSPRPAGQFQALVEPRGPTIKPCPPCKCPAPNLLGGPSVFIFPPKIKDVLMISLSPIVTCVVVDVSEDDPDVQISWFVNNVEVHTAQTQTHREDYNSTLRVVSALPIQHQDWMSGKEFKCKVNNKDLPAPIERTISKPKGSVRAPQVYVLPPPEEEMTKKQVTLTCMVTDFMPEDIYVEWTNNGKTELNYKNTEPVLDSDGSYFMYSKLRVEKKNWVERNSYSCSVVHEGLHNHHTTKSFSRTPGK
Briefly: SPR (Biacore), monkey PD-1-mFc, 25 C; end of range tied to H4H7798N by Table 10.

The target of assay [7] is T6, full length human PD-1 on HEK293 cells (HEK293/hPD-1) (human, UniProt Q15116 25-288).
T6 construct: also called human PD-1 expressing cells
Briefly: FACS, dose titration on HEK293/hPD-1 cells; end tied to H4H7798N by Table 21.

Assay [8] concerns the target T7, dimeric biotinylated human PD-1 protein, human PD-1 extracellular domain with a C-terminal human Fc tag (human, biotinylated (sites not given)).
T7 construct: also called biot-hPD-1-hFc
Briefly: competition ELISA: blocking 200 pM biot-hPD-1-hFc binding to coated hPD-L1-mFc; end tied to H1M7799N by Table 13 (below theoretical bottom 100 pM).

The target in assay [9] is T6, full length human PD-1 on HEK293 cells …. The assay is described as follows: FACS, dose titration on HEK293/hPD-1 cells; end tied to H1M7799N by Table 20.
The target of assay [10] is T4, recombinant human PD-1 dimer expressed …. Briefly: competition ELISA: blocking 1.5 nM hPD-1-mFc binding to coated hPD-L1-hFc; end tied to H4xH9048P2 by Table 12.
Assay [11] has as its target T6, full length human PD-1 on HEK293 cells …. Briefly: FACS, dose titration on HEK293/hPD-1 cells; end tied to H2aM7796N by Table 21.
In assay [12] the target is T7, dimeric biotinylated human PD-1 …. The assay is described as follows: competition ELISA: blocking 200 pM biot-hPD-1-hFc binding to coated hPD-L1-mFc; end tied to H2aM7796N (and H4xH9008P) by Table 13.
For assay [13], the target named is T2, recombinant human PD-1 expressed with a …. Briefly: SPR (Biacore), hPD-1-MMH, 37 C; end of range tied to H2aM7796N by Table 5.

B1: H2aM7798N (antibody, mouse IgG2a, V domains shown)
VH: EVQLLESGGVLVQPGGSLRLSCAASGFTFSNFGMTWVRQAPGKGLEWVSGISGGGRDTYFADSVKGRFTISRDNSKNTLYLQMNSLKGEDTAVYYCVKWGNIYFDYWGQGTLVTVSS
VL: DIQMTQSPSSLSASVGDSITITCRASLSINTFLNWYQQKPGKAPNLLIYAASSLHGGVPSRFSGSGSGTDFTLTIRTLQPEDFATYYCQQSSNTPFTFGPGTVVDFR
notes: Human variable domains, mouse IgG2a Fc; also called H2M7798N
B1: the Kd in [1] worked out at 7 nM; in [2], 2.31 nM; in assay [3] it was 0.0655 nM; in assay [5], 3.79 nM. Further, the koff in [2] stood at 0.000306 s⁻¹. Besides, the kon in [2] was 132000 M⁻¹ s⁻¹. The t½ in [2] was 38 min. For the same molecule, in assay [4], the “Emax, AP1-Luc signal at 100 nM antibody (% of signal without anti-PD-1 antibody)” value was found to be 239%. The IC50 in assay [6] is 0.13 nM.

B2: H4H7798N (antibody, human IgG4 S228P, kappa, V domains shown)
VH: EVQLLESGGVLVQPGGSLRLSCAASGFTFSNFGMTWVRQAPGKGLEWVSGISGGGRDTYFADSVKGRFTISRDNSKNTLYLQMNSLKGEDTAVYYCVKWGNIYFDYWGQGTLVTVSS
VL: DIQMTQSPSSLSASVGDSITITCRASLSINTFLNWYQQKPGKAPNLLIYAASSLHGGVPSRFSGSGSGTDFTLTIRTLQPEDFATYYCQQSSNTPFTFGPGTVVDFRR
Take B2: in [2], the Kd turned out to be 3.01 nM, the koff was determined as 0.000443 s⁻¹, the kon worked out at 147000 M⁻¹ s⁻¹ and the t½ came to 26 min. The “Emax, AP1-Luc signal at 100 nM antibody (% of signal without anti-PD-1 antibody)” value in assay [4] was found to be 343%. The Kd with monkey PD-1 with mFc was 0.137 nM. The molecule further yielded an EC50 in assay [7] of 0.509 nM.

B3: H1M7799N (antibody, mouse IgG1, V domains shown)
VH: EVQLVESGGGLVQPGGSLRLSCAASGFTVSNNYMSWVRQAPGKGLEWVSVIYSGGFTYYTDSVKGRFTISRHNSKNTLYLQMNSLRAEDTAVYYCARYYYDTSDYWTFFDYWGQGTLVTVSS
VL: EIVMTQSPATLSVSPGERATLSCRASQSVSSNLAWYQQKPGQAPRLLIYGASTRATGIPARFSGSGSGTEFTLTISSLQSGDFAVYYCQQYNNWPLTFGGGTKVEIN
notes: Human variable domains, mouse IgG1 Fc
Turning to B3, in [2], the Kd came to 244 nM, the koff worked out at 0.0123 s⁻¹, the association rate constant (kon) is 50400 M⁻¹ s⁻¹ and the t½ is 0.9 min. Also, in assay [8], the IC50 amounted to 0.059 nM. Moreover, the midpoint of the response in [9], the EC50, lay at 0.0332 nM.

B4: H4xH9048P2 (antibody, human IgG4, V domains shown)
VH: QVQLVQSGAEVKRPGSSVKVSCKVSGVTFRNFAIIWVRQAPGQGLEWMGGIIPFFSAANYAQSFQGRVTITPDESTSTAFMELASLRSEDTAVYYCAREGERGHTYGFDYWGQGTLVTVSS
VL: not shown
notes: H4xH: modified human IgG4 Fc
B4: in assay [2], the Kd was determined as 8.95 nM, the koff was 0.00123 s⁻¹, the kon was determined as 137000 M⁻¹ s⁻¹ and the t½ was determined as 9.4 min. Also, the IC50 in assay [10] came to 3.3 nM.

B5: H2aM7796N (antibody, mouse IgG2a, V domains shown)
VH: QVQLVESGGGVVQPGRSLRLSCAASGFTFSSYGMHWVRQAPGKGLEWVAIIWSDGDSEYNLDSVKGRFTISRDNSKNTLYLQMNSLRVEDSAVYYCARDRDLEDIWGQGTMVTVSS
VL: DIQMTQSPSSLSASVGDRVTITCRASQGIRNDLGWYQQKPGKAPKRLIYAASNLQSGVPSRFSGSGSGTEFTLTISSLQPEDFATYYCLQHNSYPLTFGGGTKVEIK
notes: Human variable domains, mouse IgG2a Fc; also called H2M7796N
On to B5, for which, in assay [2], the Kd came out at 286 nM, the koff came to 0.00193 s⁻¹, the on-rate (kon) worked out at 6730 M⁻¹ s⁻¹ and the t½ was determined as 6 min. In addition, the EC50 in [11] came to 4.81 nM. The molecule further showed an IC50 in assay [12] of 1.3 nM. The Kd in assay [13] amounted to 1510 nM.
